US20240124607A1 (Merck Sharp & Dohme, published 2024)

Tests used:
Assay in all cases: SPR, 37C, pH 7.4; reference E398
[1] = molecular target: T1, Human CEACAM5 (E398) (human, UniProt P06731 35-685, limits assumed)
T1 construct: also called hCEACAM5
T1 sequence: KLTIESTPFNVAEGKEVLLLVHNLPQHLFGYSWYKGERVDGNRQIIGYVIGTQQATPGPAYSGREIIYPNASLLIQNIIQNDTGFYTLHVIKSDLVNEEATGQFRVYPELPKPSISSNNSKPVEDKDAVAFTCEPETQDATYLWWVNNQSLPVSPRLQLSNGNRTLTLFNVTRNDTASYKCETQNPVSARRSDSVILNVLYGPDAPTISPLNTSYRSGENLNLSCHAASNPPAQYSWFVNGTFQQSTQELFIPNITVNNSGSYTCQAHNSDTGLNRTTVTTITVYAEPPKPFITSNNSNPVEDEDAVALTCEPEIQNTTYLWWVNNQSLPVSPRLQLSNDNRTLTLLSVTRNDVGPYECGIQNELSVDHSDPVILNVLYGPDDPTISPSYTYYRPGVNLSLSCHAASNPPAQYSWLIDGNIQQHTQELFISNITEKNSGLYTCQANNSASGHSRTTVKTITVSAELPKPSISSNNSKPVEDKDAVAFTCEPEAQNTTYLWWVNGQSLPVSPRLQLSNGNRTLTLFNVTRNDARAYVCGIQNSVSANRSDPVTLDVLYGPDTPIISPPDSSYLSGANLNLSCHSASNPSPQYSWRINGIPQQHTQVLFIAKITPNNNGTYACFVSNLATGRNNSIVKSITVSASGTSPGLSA

[2] = molecular target: T2, Human CEACAM5 I112V (human, UniProt P06731 35-685, limits assumed)
T2 sequence: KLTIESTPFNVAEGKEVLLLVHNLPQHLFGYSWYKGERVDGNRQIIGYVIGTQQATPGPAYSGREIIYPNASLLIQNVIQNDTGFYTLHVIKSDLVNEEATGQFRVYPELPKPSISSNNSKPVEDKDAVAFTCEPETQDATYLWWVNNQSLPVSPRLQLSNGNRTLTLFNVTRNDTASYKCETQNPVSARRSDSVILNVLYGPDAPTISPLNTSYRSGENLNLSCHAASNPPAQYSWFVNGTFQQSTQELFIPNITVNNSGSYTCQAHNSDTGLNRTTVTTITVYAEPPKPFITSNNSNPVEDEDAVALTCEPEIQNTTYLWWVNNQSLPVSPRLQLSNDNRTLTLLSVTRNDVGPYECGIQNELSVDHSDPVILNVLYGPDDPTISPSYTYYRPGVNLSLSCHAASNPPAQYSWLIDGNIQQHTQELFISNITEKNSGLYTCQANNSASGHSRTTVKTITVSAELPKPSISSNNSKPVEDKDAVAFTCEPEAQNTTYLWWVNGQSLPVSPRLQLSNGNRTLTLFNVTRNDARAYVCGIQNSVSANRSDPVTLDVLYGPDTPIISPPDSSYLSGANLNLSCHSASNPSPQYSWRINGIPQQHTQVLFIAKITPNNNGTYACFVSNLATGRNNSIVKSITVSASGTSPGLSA

[3] = molecular target: T3, Human CEACAM5 I80V V83A I112V I113T (human, UniProt P06731 35-685, limits assumed)
T3 chain: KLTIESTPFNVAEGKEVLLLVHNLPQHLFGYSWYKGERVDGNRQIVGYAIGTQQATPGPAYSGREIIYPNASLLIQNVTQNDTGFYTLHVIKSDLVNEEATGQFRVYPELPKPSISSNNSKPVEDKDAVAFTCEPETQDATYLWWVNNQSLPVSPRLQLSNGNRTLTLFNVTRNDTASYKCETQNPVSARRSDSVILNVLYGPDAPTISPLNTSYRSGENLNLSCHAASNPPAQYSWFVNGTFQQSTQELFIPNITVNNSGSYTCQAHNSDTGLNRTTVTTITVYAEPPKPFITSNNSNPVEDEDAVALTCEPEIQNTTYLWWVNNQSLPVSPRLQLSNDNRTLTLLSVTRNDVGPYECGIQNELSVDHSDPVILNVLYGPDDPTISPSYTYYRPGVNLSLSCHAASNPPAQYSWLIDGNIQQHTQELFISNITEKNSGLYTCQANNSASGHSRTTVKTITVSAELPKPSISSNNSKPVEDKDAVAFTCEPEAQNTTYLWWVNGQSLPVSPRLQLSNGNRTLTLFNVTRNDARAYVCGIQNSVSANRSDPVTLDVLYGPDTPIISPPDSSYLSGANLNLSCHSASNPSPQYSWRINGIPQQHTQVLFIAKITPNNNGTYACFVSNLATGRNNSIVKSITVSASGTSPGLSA

[4] = molecular target: T4, Human CEACAM5 V83A (human, UniProt P06731 35-685, limits assumed)
T4 sequence: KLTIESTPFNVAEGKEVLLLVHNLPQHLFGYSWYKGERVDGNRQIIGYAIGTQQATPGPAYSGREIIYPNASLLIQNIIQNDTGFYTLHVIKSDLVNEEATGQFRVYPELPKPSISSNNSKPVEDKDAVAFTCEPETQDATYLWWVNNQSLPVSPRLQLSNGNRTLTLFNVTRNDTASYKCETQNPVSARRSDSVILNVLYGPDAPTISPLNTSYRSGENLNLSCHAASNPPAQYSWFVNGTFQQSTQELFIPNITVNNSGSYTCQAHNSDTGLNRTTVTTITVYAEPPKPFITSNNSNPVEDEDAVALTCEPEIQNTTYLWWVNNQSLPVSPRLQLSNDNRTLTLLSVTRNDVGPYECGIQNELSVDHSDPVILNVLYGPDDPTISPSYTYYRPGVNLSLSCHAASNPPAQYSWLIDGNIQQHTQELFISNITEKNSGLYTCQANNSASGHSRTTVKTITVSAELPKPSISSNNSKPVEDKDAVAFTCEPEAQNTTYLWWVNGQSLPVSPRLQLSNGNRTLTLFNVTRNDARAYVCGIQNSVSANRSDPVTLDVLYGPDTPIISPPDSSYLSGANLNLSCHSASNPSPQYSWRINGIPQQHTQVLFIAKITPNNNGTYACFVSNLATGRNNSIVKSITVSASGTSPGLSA

B1: AB0466 F3' CEACAM5 TriNKET (bispecific antibody, human IgG1, kappa)
chain: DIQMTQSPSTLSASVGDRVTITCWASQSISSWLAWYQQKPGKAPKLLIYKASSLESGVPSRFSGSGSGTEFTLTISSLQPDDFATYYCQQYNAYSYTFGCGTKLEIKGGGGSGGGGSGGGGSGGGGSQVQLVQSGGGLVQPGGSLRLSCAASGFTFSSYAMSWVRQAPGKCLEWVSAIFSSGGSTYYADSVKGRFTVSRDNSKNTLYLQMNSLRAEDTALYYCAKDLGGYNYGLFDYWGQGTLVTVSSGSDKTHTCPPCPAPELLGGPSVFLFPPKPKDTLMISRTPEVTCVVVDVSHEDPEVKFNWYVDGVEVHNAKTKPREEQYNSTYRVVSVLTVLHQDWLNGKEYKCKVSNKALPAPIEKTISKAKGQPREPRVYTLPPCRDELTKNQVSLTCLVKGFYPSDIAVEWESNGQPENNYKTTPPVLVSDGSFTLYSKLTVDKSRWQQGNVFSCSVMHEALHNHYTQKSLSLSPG
heavy: EVQLVESGGGLVKPGGSLRLSCAASGFTFSSYSMNWVRQAPGKGLEWVSSISSSSSYIYYADSVKGRFTISRDNAKNSLYLQMNSLRAEDTAVYYCARGAPIGAAAGWFDPWGQGTLVTVSSASTKGPSVFPLAPSSKSTSGGTAALGCLVKDYFPEPVTVSWNSGALTSGVHTFPAVLQSSGLYSLSSVVTVPSSSLGTQTYICNVNHKPSNTKVDKKVEPKSCDKTHTCPPCPAPELLGGPSVFLFPPKPKDTLMISRTPEVTCVVVDVSHEDPEVKFNWYVDGVEVHNAKTKPREEQYNSTYRVVSVLTVLHQDWLNGKEYKCKVSNKALPAPIEKTISKAKGQPREPQVCTLPPSRDELTENQVSLTCLVKGFYPSDIAVEWESNGQPENNYKTTPPVLDSDGSFFLYSWLTVDKSRWQQGNVFSCSVMHEALHNHYTQKSLSLSPG
light: DIQMTQSPSSVSASVGDRVTITCRASQGISSWLAWYQQKPGKAPKLLIYAASSLQSGVPSRFSGSGSGTDFTLTISSLQPEDFATYYCQQGVSFPRTFGGGTKVEIKRTVAAPSVFIFPPSDEQLKSGTASVVCLLNNFYPREAKVQWKVDNALQSGNSQESVTEQDSKDSTYSLSSTLTLSKADYEKHKVYACEVTHQGLSSPVTKSFNRGEC
KD/KD(Ref) [1]: 1 fold
KD/KD(Ref) [2]: 1.6 fold
KD/KD(Ref) [3]: 8.5 fold
KD/KD(Ref) [4]: 9.3 fold

B2: AB0621 F3' CEACAM5 TriNKET (bispecific antibody, human IgG1, kappa)
chain: DIVMTQSPDSLAVSLGERATINCKSSHSLLYGNFQNNYLAWYQQKPGQPPKLLIYWASTRESGVPDRFSGSGSGTDFTLTISSLQAEDVAVYYCQQYYSYPYTFGCGTKLEIKGGGGSGGGGSGGGGSGGGGSQVQLVQSGAEVKKPGASVKVSCKASGYTFTAYTIHWVRQAPGQCLEWMGYINPSSGYTEYNQKFKDRTTLTADTSISTAYMELSRLRSDDTAVYYCTREGGLLWFDYWGQGTLVTVSSGSDKTHTCPPCPAPELLGGPSVFLFPPKPKDTLMISRTPEVTCVVVDVSHEDPEVKFNWYVDGVEVHNAKTKPREEQYNSTYRVVSVLTVLHQDWLNGKEYKCKVSNKALPAPIEKTISKAKGQPREPRVYTLPPCRDELTKNQVSLTCLVKGFYPSDIAVEWESNGQPENNYKTTPPVLVSDGSFTLYSKLTVDKSRWQQGNVFSCSVMHEALHNHYTQKSLSLSPG
heavy: EVQLVESGGGLVKPGGSLRLSCAASGFTFSSYSMNWVRQAPGKGLEWVSSISSSSSYIYYADSVKGRFTISRDNAKNSLYLQMNSLRAEDTAVYYCARGAPIGAAAGWFDPWGQGTLVTVSSASTKGPSVFPLAPSSKSTSGGTAALGCLVKDYFPEPVTVSWNSGALTSGVHTFPAVLQSSGLYSLSSVVTVPSSSLGTQTYICNVNHKPSNTKVDKKVEPKSCDKTHTCPPCPAPELLGGPSVFLFPPKPKDTLMISRTPEVTCVVVDVSHEDPEVKFNWYVDGVEVHNAKTKPREEQYNSTYRVVSVLTVLHQDWLNGKEYKCKVSNKALPAPIEKTISKAKGQPREPQVCTLPPSRDELTENQVSLTCLVKGFYPSDIAVEWESNGQPENNYKTTPPVLDSDGSFFLYSWLTVDKSRWQQGNVFSCSVMHEALHNHYTQKSLSLSPG
light: DIQMTQSPSSVSASVGDRVTITCRASQGISSWLAWYQQKPGKAPKLLIYAASSLQSGVPSRFSGSGSGTDFTLTISSLQPEDFATYYCQQGVSFPRTFGGGTKVEIKRTVAAPSVFIFPPSDEQLKSGTASVVCLLNNFYPREAKVQWKVDNALQSGNSQESVTEQDSKDSTYSLSSTLTLSKADYEKHKVYACEVTHQGLSSPVTKSFNRGEC
KD/KD(Ref) [1]: 1 fold
KD/KD(Ref) [2]: 2.3 fold
KD/KD(Ref) [3]: 1.3 fold
KD/KD(Ref) [4]: 2 fold

B3: AB0411 F3' CEACAM5 TriNKET (bispecific antibody, human IgG1, kappa)
chain: DIQLTQSPATLSVSPGERATLSCRASQSVSSSYLAWYQQKPGQAPRLLIYGASSRATGIPDRFSGSGSGTDFTLTISRLEPEDFAVYYCQQYNNWPLTFGCGTKVEIKGGGGSGGGGSGGGGSGGGGSQVQLVQSGGGLVQPGGSLRLSCAASGFTFTSYAMSWVRQAPGKCLEWVSAISGTGDSTFYADSVKGRFTFSRDNSKNTLYLQMNSLRAEDTAVYYCAKDLGWLQYGLFDYWGQGTLVTVSSGSDKTHTCPPCPAPELLGGPSVFLFPPKPKDTLMISRTPEVTCVVVDVSHEDPEVKFNWYVDGVEVHNAKTKPREEQYNSTYRVVSVLTVLHQDWLNGKEYKCKVSNKALPAPIEKTISKAKGQPREPRVYTLPPCRDELTKNQVSLTCLVKGFYPSDIAVEWESNGQPENNYKTTPPVLVSDGSFTLYSKLTVDKSRWQQGNVFSCSVMHEALHNHYTQKSLSLSPG
heavy: EVQLVESGGGLVKPGGSLRLSCAASGFTFSSYSMNWVRQAPGKGLEWVSSISSSSSYIYYADSVKGRFTISRDNAKNSLYLQMNSLRAEDTAVYYCARGAPIGAAAGWFDPWGQGTLVTVSSASTKGPSVFPLAPSSKSTSGGTAALGCLVKDYFPEPVTVSWNSGALTSGVHTFPAVLQSSGLYSLSSVVTVPSSSLGTQTYICNVNHKPSNTKVDKKVEPKSCDKTHTCPPCPAPELLGGPSVFLFPPKPKDTLMISRTPEVTCVVVDVSHEDPEVKFNWYVDGVEVHNAKTKPREEQYNSTYRVVSVLTVLHQDWLNGKEYKCKVSNKALPAPIEKTISKAKGQPREPQVCTLPPSRDELTENQVSLTCLVKGFYPSDIAVEWESNGQPENNYKTTPPVLDSDGSFFLYSWLTVDKSRWQQGNVFSCSVMHEALHNHYTQKSLSLSPG
light: DIQMTQSPSSVSASVGDRVTITCRASQGISSWLAWYQQKPGKAPKLLIYAASSLQSGVPSRFSGSGSGTDFTLTISSLQPEDFATYYCQQGVSFPRTFGGGTKVEIKRTVAAPSVFIFPPSDEQLKSGTASVVCLLNNFYPREAKVQWKVDNALQSGNSQESVTEQDSKDSTYSLSSTLTLSKADYEKHKVYACEVTHQGLSSPVTKSFNRGEC
KD/KD(Ref) [1]: 1 fold
KD/KD(Ref) [2]: 1.2 fold
KD/KD(Ref) [3]: 3.9 fold
KD/KD(Ref) [4]: 4.9 fold
